Source: patent US20070066800A1, “Apo2l(trail) receptor binding peptides and uses thereof” (priority 2003, published 2007)

Tests used:
Format in all cases: binding
Details in all cases: Table IV cross-reactivity; phage clones
[1] = biological target: T1, Hu DR5 IgG (SEQ ID NO: 109) (Homo sapiens, UniProt O14763); assay: Ic50 cross-reactivity ELISA, Hu DR5 IgG
T1 construct: Human DR5 IgG fusion polypeptide
Protocol: (§1) 1. Coat microtiter plate wells with 80 ul of 1 ug/ml Apo-2L receptor DR5 ECD (SEQ ID NO: 105) (in 50 mM sodium carbonate pH 9.6) at 4° C. overnight.
(§2) 3. Prepare competing receptor solutions (100 ul/sample).
(§3) 6. Transfer 80 ul the mixture of competing receptor and phage from the non-sticky plate to DR5 ECD coated plate and incubate 20 minutes at room temperature.
(§4) In the Tables provided herein, “Ic 50” refers to the measure of the concentration of peptide needed to inhibit 50% of Apo-2L (e.g. amino acids 114 to 281 of SEQ ID NO: 1) binding to an Apo-2L receptor molecule (e.g. DR4-IgG (SEQ ID NO: 108) or DR5 ECD (SEQ ID NO: 105) etc.). The peptides are classified such that class 1-class 4 represent a, b, c, and d respectively.
(§5) Table VIII identifies the sequence identification numbers (SEQ ID NOs.) for the various peptides disclosed herein.

[2] = biological target: T2, Hu DR4 IgG (SEQ ID NO: 108) (Homo sapiens, UniProt O00220, H141R/R209T); assay: Ic50 cross-reactivity ELISA, Hu DR4 IgG
T2 construct: Human DR4 IgG fusion polypeptide
T2 sequence (O00220 with tags, fused parts or gaps H141R/R209T): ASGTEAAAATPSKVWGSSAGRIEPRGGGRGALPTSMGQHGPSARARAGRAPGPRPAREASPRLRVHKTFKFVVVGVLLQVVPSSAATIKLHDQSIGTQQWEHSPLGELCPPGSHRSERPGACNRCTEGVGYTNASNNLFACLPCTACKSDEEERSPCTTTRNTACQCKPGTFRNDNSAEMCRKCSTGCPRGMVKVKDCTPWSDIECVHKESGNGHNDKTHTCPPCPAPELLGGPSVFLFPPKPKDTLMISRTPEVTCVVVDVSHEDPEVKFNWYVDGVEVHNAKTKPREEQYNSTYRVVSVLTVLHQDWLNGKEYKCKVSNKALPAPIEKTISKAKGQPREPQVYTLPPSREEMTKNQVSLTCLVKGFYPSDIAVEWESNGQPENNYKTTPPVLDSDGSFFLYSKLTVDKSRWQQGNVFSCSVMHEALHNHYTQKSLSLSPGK
Protocol: as §1, §2, §3, §4, §5

[3] = tested on: Cyno DR5 IgG (SEQ ID NO: 112); assay: Ic50 cross-reactivity ELISA, Cyno DR5 IgG
Protocol: as §1, §2, §3
Peptides of the invention and their Ic 50 values (e.g. determinations of Ic 50 in ELISA based assays using a DR5 ECD (SEQ ID NO: 105) competitor) are identified in Table III below. In the Tables provided herein, “Ic 50” refers to the measure of the concentration of peptide needed to inhibit 50% of Apo-2L (e.g. amino acids 114 to 281 of SEQ ID NO: 1) binding to an Apo-2L receptor molecule (e.g. DR4-IgG (SEQ ID NO: 108) or DR5 ECD (SEQ ID NO: 105) etc.). The peptides are classified such that class 1-class 4 represent a, b, c, and d respectively.
Table IV below provides certain properties of selected peptides, for example Ic50 cross-reactivity data with DR4 and DR5 polypeptides. Table VIII identifies the sequence identification numbers (SEQ ID NOs.) for the various peptides disclosed herein.
Using these methods, the Ic 50 values for various phage clones expressing peptide sequences of interest were generated and are provided in the Tables below. […]

[4] = tested on: Cyno DR4 IgG (SEQ ID NO: 111); assay: Ic50 cross-reactivity ELISA, Cyno DR4 IgG
Cyno DR4 IgG (SEQ ID NO: 111), sequence (as listed by the source): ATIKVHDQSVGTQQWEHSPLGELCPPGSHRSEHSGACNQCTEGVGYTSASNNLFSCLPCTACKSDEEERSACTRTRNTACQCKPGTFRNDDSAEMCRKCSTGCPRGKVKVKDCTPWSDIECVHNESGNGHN
Protocol: as §1, §2, §3, §4, §5

[5] = biological target: T3, Hu TNFR IgG (SEQ ID NO: 110) (Homo sapiens, UniProt P19438); assay: Ic50 cross-reactivity ELISA, Hu TNFR IgG
T3 construct: Human TNFR1 IgG fusion polypeptide
T3 sequence (P19438 with tags, fused parts or gaps): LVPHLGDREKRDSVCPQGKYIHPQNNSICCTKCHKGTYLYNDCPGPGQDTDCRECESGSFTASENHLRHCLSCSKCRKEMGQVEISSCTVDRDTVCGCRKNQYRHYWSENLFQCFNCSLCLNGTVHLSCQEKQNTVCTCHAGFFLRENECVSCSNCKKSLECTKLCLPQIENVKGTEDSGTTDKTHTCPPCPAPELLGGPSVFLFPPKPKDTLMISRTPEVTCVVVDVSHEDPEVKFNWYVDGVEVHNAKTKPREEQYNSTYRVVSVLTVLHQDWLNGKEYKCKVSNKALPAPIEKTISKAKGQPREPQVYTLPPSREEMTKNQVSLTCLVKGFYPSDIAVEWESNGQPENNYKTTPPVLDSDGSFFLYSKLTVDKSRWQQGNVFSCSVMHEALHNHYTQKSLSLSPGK
Protocol: as §1, §2, §3, §4, §5

T1 sequence (O14763 with tags, fused parts or gaps): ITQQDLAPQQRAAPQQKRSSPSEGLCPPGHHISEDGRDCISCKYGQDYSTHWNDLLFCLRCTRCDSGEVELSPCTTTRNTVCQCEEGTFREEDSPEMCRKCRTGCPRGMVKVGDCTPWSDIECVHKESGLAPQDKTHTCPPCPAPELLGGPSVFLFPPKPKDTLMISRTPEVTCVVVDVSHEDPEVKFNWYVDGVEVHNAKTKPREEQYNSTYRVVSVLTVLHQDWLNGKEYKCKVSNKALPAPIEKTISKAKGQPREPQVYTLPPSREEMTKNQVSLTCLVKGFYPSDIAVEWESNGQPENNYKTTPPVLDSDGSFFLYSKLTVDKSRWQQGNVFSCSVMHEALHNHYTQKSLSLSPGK

## Hd5-11: phage-derived DR5 binding peptide, class C1, SEQ ID NO: 15, first generation (G1) lead (QEVCMTSCDKLMKCNWMAAM)
[1]
  IC50: 0.008 µM
[2]
  IC50: 1 µM
[3]
  IC50: 10 µM
[4]
  IC50: 1 µM
[5]
  IC50: 1 µM
